Measurements as given in IntAct's records for PubMed 9891048.

B1: DNA damage checkpoint control protein RAD17 (Saccharomyces cerevisiae), P48581 (parent)
chain: MRINSELANKFSASTVHLEHITTALSCLTPFGSKDDVLIFIDADGLSFVRENNHVIKIQLLLSRELFMSYSYRNETEDHMKLCVKINHILDSVSVMNRNSDDIVECTLSYDGHGSPFVLIFEDSFISERVEYSTYLIKDFDTNGLELDRERISFEAIIKGEALHSALKDLKEIGCKECYVYAKTEANDENVFALISKSQLGFSKIKLPSNRSILEKLQVFDGDSTTVIDGFAVIGFFDFTSFDKIRKSTKIASKVLFRMDVHGVLSVNILSQTDDVIITDTTRPSNNRPGSIRQLQLPKDYPGIVIEVCMLEKESIDEAAQTEIELLMETNELGNRNSFKKSTIRKRYGTDKGNETSNDNLLQLNGKKIKLPSEEENNKNRESEDEENHCKYPTKDIPIFF
partner: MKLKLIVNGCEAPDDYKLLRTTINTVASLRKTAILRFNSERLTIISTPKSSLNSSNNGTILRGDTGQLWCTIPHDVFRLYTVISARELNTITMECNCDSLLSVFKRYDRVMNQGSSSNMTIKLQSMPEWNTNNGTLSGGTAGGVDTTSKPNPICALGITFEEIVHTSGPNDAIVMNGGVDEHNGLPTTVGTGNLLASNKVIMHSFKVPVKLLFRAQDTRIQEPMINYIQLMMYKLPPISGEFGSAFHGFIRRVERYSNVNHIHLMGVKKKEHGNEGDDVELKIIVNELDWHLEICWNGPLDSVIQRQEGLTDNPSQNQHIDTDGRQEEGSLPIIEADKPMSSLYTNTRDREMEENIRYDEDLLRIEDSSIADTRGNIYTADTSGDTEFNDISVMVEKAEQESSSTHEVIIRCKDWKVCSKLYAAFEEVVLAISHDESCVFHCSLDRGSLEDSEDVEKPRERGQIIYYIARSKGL

Variants of: B1
Conditions: with mec3_yeast MEC3, Q02574

Variant	effect of a mutation on the interaction
MRINSELANKFSASTVHLEHITTALSCLTPFGSKDDVLIFIDADGLSFVRENNHVIKIQLLLSRELFMSYSYRNETEDHMKLCVKINHILDSVSVMNRNSDDIVECTLSYDGHGSPFVLIFEDSFISKRVEYSTYLIKDFDTNGLELDRERISFEAIIKGEALHSALKDLKEIGCKECYVYAKTEANDENVFALISKSQLGFSKIKLPSNRSILEKLQVFDGDSTTVIDGFAVIGFFDFTSFDKIRKSTKIASKVLFRMDVHGVLSVNILSQTDDVIITDTTRPSNNRPGSIRQLQLPKDYPGIVIEVCMLEKESIDEAAQTEIELLMETNELGNRNSFKKSTIRKRYGTDKGNETSNDNLLQLNGKKIKLPSEEENNKNRESEDEENHCKYPTKDIPIFF [E128K]	decreasing interaction
